From patent US7323170

Biological target: human B7.1, membrane associated (human) (UniProt P33681)
Experiment: cell-based or functional assay

human B7.1, membrane associated (human), sequence (P33681 35-288): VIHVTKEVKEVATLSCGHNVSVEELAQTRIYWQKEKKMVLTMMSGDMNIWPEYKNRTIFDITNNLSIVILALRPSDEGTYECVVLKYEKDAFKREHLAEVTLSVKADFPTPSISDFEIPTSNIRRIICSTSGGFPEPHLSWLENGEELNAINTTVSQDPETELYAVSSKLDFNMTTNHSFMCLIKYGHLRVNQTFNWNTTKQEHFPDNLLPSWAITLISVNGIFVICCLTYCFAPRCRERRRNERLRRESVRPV

inhibition of IL-2 production in mixed lymphocyte reaction (concentration at which inhibitory): 10 µg/mL
Substance: murine anti-B7.1 monoclonal antibody L307.4
